From patent US20200095341A1 (UNIVERSITEIT TWENTE, published 2020)
Ends that are not written are not given here.

Columns and labels:
hTGFB1 (Peprotech) = hTGFB1 (Peprotech) (human, UniProt P01137 279-390); experiment: cell-based or functional assay
hBMP-2 (PeproTech) = hBMP-2 (PeproTech) (human, UniProt P12643 283-396); experiment: cell-based or functional assay
endogenous BMP-2 (rat) = target: T1, endogenous BMP-2 (rat) (rat, UniProt P49001 280-393, limits assumed); experiment: immunofluorescence against BMP-2 of PCL films implanted subcutaneously in rats for 7 days
T1 construct: also called BMP-2 released during inflammation
Source text: Both native and functionalized PCL films were subcutaneously implanted in the back of rats, facing the fascia. Each animal, with a total of three animals per time point, was implanted with both native and functionalized film. At day 3 and day 7 after implantation, samples were harvested and used for immunofluorescence against BMP-2 and for histology. Only the samples from day 7 were used for immunofluorescence against BMP-2.

hVEGF (PeproTech) [1] = target: T2, hVEGF (PeproTech) (human, UniProt P15692-4 27-191, limits assumed); experiment: immunofluorescence against hVEGF on peptide-functionalized PCL films, 1 µg/mL hVEGF
T2 construct: Commercial growth factor; also called ihVEGF; shVEGF
Procedure: (§1) Samples were incubated with 1 μg/mL of VEGF (PeproTech) in 0.5% (v/v) PBS TWEEN®20 (PBST) for one hour with gentle agitation. The films were then washed three times for 10 minutes with 0.5% (v/v) PBST and then with PBS for a further 10 minutes. Next, the films were blocked for one hour with PBS containing 1% (w/v) bovine serum albumin (BSA) and subsequently washed as described above. Afterwards, the films were incubated with a primary antibody (2 μg/mL; rabbit polyclonal anti-human VEGF, PeproTech) in the blocking solution during one hour with agitation. […] Before image acquisition, the films were washed three times for 10 minutes with 1 mM PBST, rinsed three times with PBS and dried under a N2 stream. Fluorescence intensity was quantified using ImageJ.

hVEGF (PeproTech) [2] = target: T2, hVEGF (PeproTech); experiment: immunofluorescence against hVEGF on peptide-functionalized POLY-TAPE, 1 µg/mL hVEGF
Procedure: Fluorescence intensity was quantified using ImageJ. For cell experiments, the sterile PCL films were washed three times with PBS and incubated with 0.5 μg of VEGF in 0.5% (v/v) PBST for one hour with gentle agitation. Subsequently, the films were extensively washed with PBST (0.5%) and PBS to remove any traces of the washing buffer prior to cell seeding.
Incubation with hVEGF, immunofluorescence staining and fluorescence quantification was performed as mentioned above for the PCL films.
The POLY-TAPE® was oxygen plasma treated (OPT) for 5 minutes and incubated for one hour with 1 M NaOH in order to hydrolyze the esters and expose the carboxylic acids.

hVEGF (PeproTech) [3] = target: T2, hVEGF (PeproTech); experiment: immunofluorescence against hVEGF on peptide-functionalized Chondro-Gide, 1 µg/mL hVEGF
Procedure: as §1
(§2) Both Chondro-Gide and Collagen Meniscus Implant (CMI) were incubated with 50 mM of NHS/EDC for 2 hours. […] Incubation with hVEGF, immunofluorescence staining and fluorescence quantification was performed as mentioned above for the PCL films.

hVEGF (PeproTech) [4] = target: T2, hVEGF (PeproTech); experiment: immunofluorescence against hVEGF on peptide-functionalized Collagen Meniscus Implant, 1 µg/mL hVEGF
Procedure: as §1, §2

T2 sequence (P15692 other isoform, or with tags, fused parts or gaps limits assumed): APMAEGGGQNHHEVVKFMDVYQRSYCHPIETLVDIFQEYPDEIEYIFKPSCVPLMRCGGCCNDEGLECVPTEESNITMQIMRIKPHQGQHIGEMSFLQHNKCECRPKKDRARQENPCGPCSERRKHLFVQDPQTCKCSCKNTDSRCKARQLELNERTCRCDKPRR
hBMP-2 (PeproTech), sequence (P12643 283-396 limits assumed): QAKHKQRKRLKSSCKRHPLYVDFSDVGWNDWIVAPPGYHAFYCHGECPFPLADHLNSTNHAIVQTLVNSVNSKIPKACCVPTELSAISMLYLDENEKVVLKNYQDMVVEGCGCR
hTGFB1 (Peprotech), sequence (P01137 279-390 limits assumed): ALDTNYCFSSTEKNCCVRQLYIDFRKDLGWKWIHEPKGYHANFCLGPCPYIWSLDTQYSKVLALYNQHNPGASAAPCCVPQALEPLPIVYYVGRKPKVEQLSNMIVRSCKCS
T1 sequence (P49001 280-393 limits assumed): as the sequence (P12643 283-396 limits assumed) above

B1: TGFB1 binding peptide KGLPLGNSH (peptide)
peptide: Ac-KGLPLGNSH-NH2
modifications: not fully specified (residue 1); also: lysine side chain covalently coupled to PCL film
- luciferase activity of TGFB1 reporter cell line (MLEC, PAI-1 promoter), fold over same films without hTGFB1 incubation (hTGFB1 (Peprotech)): 9 fold

B2: scrambled peptide KGHNLGLPS (peptide)
peptide: Ac-KGHNLGLPS-NH2
modifications: not fully specified (residue 1); also: lysine side chain covalently coupled to PCL film
- luciferase activity of TGFB1 reporter cell line (MLEC, PAI-1 promoter), fold over same films without hTGFB1 incubation (hTGFB1 (Peprotech)): 3 fold

B3: BMP-2-binding peptide KGYPVHPST (peptide)
peptide: Ac-KGYPVHPST
modifications: not fully specified (residue 1); also: lysine side chain covalently coupled to film or tape
notes: also called YPVHPST with an extra glycine and lysine at the N-termini
- ALP produced by C2C12 after 7 days, fold over controls; functionalized films incubated with 5.0 µg hBMP-2 (hBMP-2 (PeproTech)): 12.7 fold
- ALP production by C2C12, ratio to hBMP-2 nonspecifically adsorbed on native films (hBMP-2 (PeproTech)): 2.4 fold
- luciferase of BMP-2 reporter cell line (C2C12 Luc), fold increase; films incubated with 500 ng hBMP-2 (hBMP-2 (PeproTech)): 5.3 fold
- luciferase of BMP-2 reporter cell line (C2C12 Luc, ID1 promoter), normalized to films without hBMP-2; films incubated with 500 ng hBMP-2 (hBMP-2 (PeproTech)): 10.4 fold (normalized luciferase)
- binding result (endogenous BMP-2 (rat)): binds

B4: VEGF-binding peptide KGSWWAPFH (peptide)
peptide: Ac-KGSWWAPFH
modifications: not fully specified (residue 1); also: lysine side chain covalently coupled to film or device
notes: also called SWWAPFH with an extra glycine and lysine at the N-termini
- fluorescence intensity, fold over non-functionalized films incubated with hVEGF (hVEGF (PeproTech) [1]): 7 fold
- fluorescence signal, fold over native POLY-TAPE with hVEGF (hVEGF (PeproTech) [2]): 2.3 fold
- fluorescence signal, fold over oxygen plasma treated POLY-TAPE with hVEGF (hVEGF (PeproTech) [2]): 1.5 fold
- fluorescence signal, fold over Chondro-Gide functionalized with NHS/EDC and incubated with hVEGF (hVEGF (PeproTech) [3]): 2.2 fold
- fluorescence signal, fold (reference taken as native CMI incubated with hVEGF) (hVEGF (PeproTech) [4]): 3.3 fold
